Biological target: T1, C. elegans SMG8c (SMG8 residues 1-423) (C. elegans, UniProt O62301 1-423)
T1 construct: SMG8, C. elegans, full length 873 residues; core fragment residues 1-423 (G-like domain and stalk); Selenomethionine-substituted protein (about 60% incorporation) was used for phasing; native crystals were soaked with GDP; SMG8 was insoluble when expressed in isolation; also called C.e; SMG8 1-423; CeSMG8
T1 sequence (looked up): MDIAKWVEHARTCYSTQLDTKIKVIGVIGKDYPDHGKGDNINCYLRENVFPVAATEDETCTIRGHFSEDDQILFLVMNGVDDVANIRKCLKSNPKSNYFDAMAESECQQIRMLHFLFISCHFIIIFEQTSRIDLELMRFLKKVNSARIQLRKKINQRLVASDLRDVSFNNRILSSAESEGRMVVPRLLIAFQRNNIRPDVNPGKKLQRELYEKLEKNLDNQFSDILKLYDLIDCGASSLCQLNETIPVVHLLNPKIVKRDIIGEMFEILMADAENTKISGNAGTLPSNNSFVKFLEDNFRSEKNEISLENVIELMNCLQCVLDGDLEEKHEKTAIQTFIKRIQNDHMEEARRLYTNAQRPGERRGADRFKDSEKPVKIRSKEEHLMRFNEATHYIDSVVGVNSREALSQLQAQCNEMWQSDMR
Test: crystal structure; coexpressed and co-purified SMG8c-SMG9c core complex; vapor diffusion, 10% PEG3350, 0.1M Tris pH 8.5, 0.11 mM YCl3; SeMet crystals (2.5 Å) and native crystals soaked with 10 mM GDP (2.65 Å); three copies of the complex in the asymmetric unit
Details: both partners purified

binding result: binds
B1: C. elegans SMG9c (SMG9 residues 59-375) (domain or fragment, UniProt Q9XWJ1 59-375, looked up)
chain: MKESVRFLTDFGEISDAISDLLTSSPNFNVISAIGPQGAGKSTLLSMLAGNNSRQMYREYVFRPVSREANEQSRHQTIQIDIYIVNHQIFLDCQPMYSFSIMEGLPKVRGGRFDDSTAMSDTLRLTAFLLYVSHTVLVVSETHYDKVIIDTLRVAEQIRPYLAIFRPKLAIDRKTNLVFIKTKASSIDLAPTVIREREELLRLSFQDSRWLKVSQEPFKTLIVLEEIRVRREHLFEEGDEPDEAASLNEFDEQIAELREELQKNREDFTVETAAMDEKKWLDMCREVIRDKTLHKTLKEYQRAMTDGVRTHFDNGFH
notes: SMG9, C. elegans, full length 385 residues; core fragment residues 59-375 (G domain); Selenomethionine-substituted protein (about 60% incorporation) was used for phasing; native crystals were soaked with GDP; also called C.e; SMG9 59-375; CeSMG9c
